Among the data in the RNAGym collection of RNA variant scans (doi:10.7554/elife.80360) are self-cleavage values, retold here.

B1: CPEB3 Ribozyme (parent)
chain: GGGGGCCACAGCAGAAGCGUUCACGUCGCGGCCCCUGUCAGAUUCUGGUGAAUCUGCGAAUUCUGCUGU

Variants of B1 are the subject of this series. Put plainly: self-cleavage, relative activity (ratio to wild type); higher = more cleavage; co-transcriptional.
As to A52U U61A, the self-cleavage stood at 0.935.

In the case of A52U U61C, the self-cleavage is 0.68.

As to A52C U53C, the self-cleavage is 0.806.

With A52C U53A, the self-cleavage turned out to be 0.936.

Consider U53A A59U, for which the self-cleavage was found to be 0.646.

For U53A A59C, the self-cleavage was found to be 0.571.

With U53A A59G, the self-cleavage was 0.98.

As to A51G U69A, the self-cleavage amounted to 0.995.

As to A51G U69G, the self-cleavage was 1.03.

As for A51U U62C, the self-cleavage amounted to 0.892.

A51U U62A: the self-cleavage was 0.931.

As to A51U U62G, the self-cleavage was found to be 0.868.

For the variant A52G U53A, the self-cleavage came out at 0.917.

With A51G U53G, the self-cleavage came out at 0.839.

Turning to A51G U53A, the self-cleavage came out at 0.981.

As for A51G U53C, the self-cleavage turned out to be 0.899.

Turning to A51G A60G, the self-cleavage was found to be 0.939.

As to A51G A60U, the self-cleavage was 0.589.

For A52G C57G, the self-cleavage was determined as 0.23.

In the case of A52G C57U, the self-cleavage was determined as 0.407.

On to U53C C66G, for which the self-cleavage was 0.477.

A52C U55A: the self-cleavage worked out at 0.631.

As to A52C U55G, the self-cleavage was determined as 0.56.

Regarding A52C U55C, the self-cleavage was determined as 0.686.

As for A52G G68C, the self-cleavage amounted to 0.975.

Take A52G G68A: the self-cleavage was found to be 1.01.

With A52U C63A, the self-cleavage worked out at 0.789.

Regarding A52U C63G, the self-cleavage came to 0.72.

On to A51C C57A, for which the self-cleavage was 0.294.

Consider A51C C57U, for which the self-cleavage is 0.338.

On to U53C C63A, for which the self-cleavage was 0.402.

With U53C C63G, the self-cleavage was determined as 0.451.

In the case of U53G G56C, the self-cleavage stood at 0.331.

For the variant U53G G56A, the self-cleavage came to 0.553.

As to U53G G56U, the self-cleavage is 0.401.

As for U53A C63G, the self-cleavage amounted to 0.709.

In the case of U53A C63U, the self-cleavage was determined as 0.909.

With A51U G58U, the self-cleavage was determined as 0.954.

Turning to A52G, the self-cleavage came out at 0.995.

For A52U, the self-cleavage was found to be 0.99.

For A52C, the self-cleavage worked out at 0.993.

Take U53A C54G: the self-cleavage was determined as 0.586.

Consider A51C U69A, for which the self-cleavage worked out at 1.05.

As for A51C U69C, the self-cleavage turned out to be 1.08.

A51C U69G: the self-cleavage turned out to be 1.01.

A52U C66U: the self-cleavage came out at 0.973.

With A52U C66A, the self-cleavage turned out to be 0.701.

For the variant G50U U55C, the self-cleavage turned out to be 0.766.

Regarding A51C G56A, the self-cleavage was determined as 0.856.

For the variant A51C G56U, the self-cleavage was determined as 0.8.

As to U53G G68A, the self-cleavage is 0.909.

Consider A51U C57U, for which the self-cleavage worked out at 0.388.

Regarding A51U C57G, the self-cleavage came to 0.238.

On to U53A C57U, for which the self-cleavage turned out to be 0.376.

Turning to U53A C57G, the self-cleavage was determined as 0.345.

As for A52C A60U, the self-cleavage amounted to 0.476.

Regarding A51U U61G, the self-cleavage amounted to 0.772.

As to A51U U61A, the self-cleavage worked out at 0.932.

In the case of A51U U55A, the self-cleavage is 0.696.

A51U U55C: the self-cleavage amounted to 0.561.

Regarding A51C U61A, the self-cleavage turned out to be 0.813.

As to A52U U55C, the self-cleavage was 0.63.

Regarding A51U U67A, the self-cleavage came to 0.976.

Consider A51U U67G, for which the self-cleavage came to 1.

As for A51U U67C, the self-cleavage is 1.01.

With A51U C66G, the self-cleavage came to 0.752.

Consider A51U C66A, for which the self-cleavage was found to be 0.706.

Take A51U C66U: the self-cleavage came to 0.981.

A51C G65A: the self-cleavage was determined as 0.807.

Consider A51C G65C, for which the self-cleavage was 0.64.

In the case of A52C U64G, the self-cleavage was determined as 0.829.

As for A52C U64C, the self-cleavage worked out at 0.842.

For A51U G65A, the self-cleavage worked out at 0.889.

In the case of A51U G65U, the self-cleavage is 0.765.

As to A52U C54A, the self-cleavage came out at 0.907.

In the case of A52U C54G, the self-cleavage came out at 0.835.

On to A51G G58U, for which the self-cleavage stood at 1.01.

A51G G58C: the self-cleavage came to 1.01.

Consider G50U U69A, for which the self-cleavage came out at 0.99.

Take G50U U69G: the self-cleavage was found to be 1.05.

For G50U U69C, the self-cleavage amounted to 1.09.

Take U53G C66A: the self-cleavage was determined as 0.629.

Take A52G U55G: the self-cleavage came to 0.729.

Regarding A52G U55A, the self-cleavage is 0.914.

For U53C G56A, the self-cleavage was found to be 0.539.

As to U53C G56C, the self-cleavage turned out to be 0.39.

In the case of A51U C63U, the self-cleavage was determined as 0.996.

As to A51U C63G, the self-cleavage was found to be 0.815.

Regarding A51G U62G, the self-cleavage was 0.89.

A51G U62A: the self-cleavage was found to be 0.98.

A51G U62C: the self-cleavage was determined as 0.884.

For the variant A52G A60C, the self-cleavage is 0.336.

Consider A52G A60G, for which the self-cleavage stood at 0.922.

Consider A51C A52C, for which the self-cleavage is 0.949.

Take A51C A52G: the self-cleavage stood at 0.914.

Consider A52G G56A, for which the self-cleavage stood at 0.983.

Regarding A52G G56U, the self-cleavage came out at 0.97.

Consider A52G G56C, for which the self-cleavage was found to be 0.819.

As to A51C G58A, the self-cleavage came to 0.92.

A51C G58U: the self-cleavage turned out to be 1.03.

Consider A51C G58C, for which the self-cleavage is 0.957.

Take U53C C54G: the self-cleavage was 0.424.

Regarding U53C C54A, the self-cleavage worked out at 0.506.

With U53G G58C, the self-cleavage was determined as 0.847.

As to U53G G58U, the self-cleavage amounted to 0.939.

Take A52G C63U: the self-cleavage was found to be 1.

On to A52G C63G, for which the self-cleavage worked out at 0.865.

In the case of A52G C63A, the self-cleavage amounted to 0.907.

In the case of A52U A59U, the self-cleavage was found to be 0.803.

For the variant A52U A59G, the self-cleavage came out at 0.972.

A52U A59C: the self-cleavage worked out at 0.716.

With U53C U64A, the self-cleavage is 0.525.

As for U53C U64C, the self-cleavage turned out to be 0.536.

U53C U64G: the self-cleavage came to 0.535.

Regarding A51G U61A, the self-cleavage was found to be 0.833.

As to A51G U61G, the self-cleavage came to 0.85.

As for A52U U64C, the self-cleavage came to 0.741.

Turning to A52U U64G, the self-cleavage stood at 0.666.

A51G: the self-cleavage was 0.994.

With A51U, the self-cleavage amounted to 0.994.

As for A51C, the self-cleavage is 0.989.

As for U53C C57A, the self-cleavage is 0.346.

As for U53C C57G, the self-cleavage amounted to 0.398.

For U53C C57U, the self-cleavage came to 0.43.

Take U53A U62G: the self-cleavage came out at 0.74.

On to U53A U62C, for which the self-cleavage was determined as 0.634.

Regarding U53A U62A, the self-cleavage was found to be 0.821.

For A51C U53C, the self-cleavage is 0.781.

Regarding A51C U53A, the self-cleavage was determined as 0.851.

Take A52C U61A: the self-cleavage was found to be 0.893.

A52C U61C: the self-cleavage was found to be 0.759.

For the variant A52C U61G, the self-cleavage was determined as 0.67.

For A51G G65A, the self-cleavage turned out to be 0.948.

Take A51G G65C: the self-cleavage turned out to be 0.715.

Turning to A51G G65U, the self-cleavage came to 0.872.

For the variant A52U G56C, the self-cleavage came out at 0.456.

In the case of A52U U69G, the self-cleavage was determined as 1.04.

Regarding A52U U69C, the self-cleavage amounted to 1.05.

Regarding U53C U69G, the self-cleavage came out at 0.993.

With U53C U69C, the self-cleavage came to 1.05.

On to U53C G68U, for which the self-cleavage came to 0.986.

In the case of U53C G68C, the self-cleavage was determined as 1.02.

For U53C G68A, the self-cleavage was 0.977.

As for A52C U62C, the self-cleavage is 0.811.

Regarding A52C U62A, the self-cleavage turned out to be 0.882.

U53A G56U: the self-cleavage was 0.583.

Turning to A51U U69A, the self-cleavage is 1.01.

In the case of A51U U69G, the self-cleavage came out at 1.06.

Consider A51U U69C, for which the self-cleavage came out at 1.07.

A52G C66A: the self-cleavage was 0.845.

Take A52G C66U: the self-cleavage is 0.971.

On to A52G C54A, for which the self-cleavage came out at 0.931.

As to A52G C54U, the self-cleavage is 1.02.

With A51G U64G, the self-cleavage is 0.917.

Consider A51G U64A, for which the self-cleavage was 0.991.

For A51G U64C, the self-cleavage was 0.949.

As for G50U U61G, the self-cleavage is 0.857.

As to G50U U61C, the self-cleavage is 0.841.

For G50U U61A, the self-cleavage was found to be 0.97.

As for A52C G58U, the self-cleavage is 0.977.

With U53C U62G, the self-cleavage was 0.384.

On to U53C U62A, for which the self-cleavage came out at 0.549.

For the variant U53C A59C, the self-cleavage was 0.525.

Take U53C A59G: the self-cleavage worked out at 0.944.

As for U53C A59U, the self-cleavage was 0.618.

Regarding U53C G58A, the self-cleavage is 0.85.

Regarding U53C G58C, the self-cleavage is 0.94.
